Reference: PMC4256486 (Molecular & Cellular Proteomics : MCP, 2014)

Assays:
[1] = molecular target: human ephrin type-A receptor 2 (EphA2), ectopically expressed on CHO cells (Homo sapiens, UniProt P29317); assay: flow cytometry on cells
[2] = molecular target: Lgr5 (control), ectopically expressed on CHO cells (Homo sapiens (assumed), UniProt O75473); assay: flow cytometry on cells
Chain of Lgr5 (control), ectopically expressed on CHO cells (O75473 22-907): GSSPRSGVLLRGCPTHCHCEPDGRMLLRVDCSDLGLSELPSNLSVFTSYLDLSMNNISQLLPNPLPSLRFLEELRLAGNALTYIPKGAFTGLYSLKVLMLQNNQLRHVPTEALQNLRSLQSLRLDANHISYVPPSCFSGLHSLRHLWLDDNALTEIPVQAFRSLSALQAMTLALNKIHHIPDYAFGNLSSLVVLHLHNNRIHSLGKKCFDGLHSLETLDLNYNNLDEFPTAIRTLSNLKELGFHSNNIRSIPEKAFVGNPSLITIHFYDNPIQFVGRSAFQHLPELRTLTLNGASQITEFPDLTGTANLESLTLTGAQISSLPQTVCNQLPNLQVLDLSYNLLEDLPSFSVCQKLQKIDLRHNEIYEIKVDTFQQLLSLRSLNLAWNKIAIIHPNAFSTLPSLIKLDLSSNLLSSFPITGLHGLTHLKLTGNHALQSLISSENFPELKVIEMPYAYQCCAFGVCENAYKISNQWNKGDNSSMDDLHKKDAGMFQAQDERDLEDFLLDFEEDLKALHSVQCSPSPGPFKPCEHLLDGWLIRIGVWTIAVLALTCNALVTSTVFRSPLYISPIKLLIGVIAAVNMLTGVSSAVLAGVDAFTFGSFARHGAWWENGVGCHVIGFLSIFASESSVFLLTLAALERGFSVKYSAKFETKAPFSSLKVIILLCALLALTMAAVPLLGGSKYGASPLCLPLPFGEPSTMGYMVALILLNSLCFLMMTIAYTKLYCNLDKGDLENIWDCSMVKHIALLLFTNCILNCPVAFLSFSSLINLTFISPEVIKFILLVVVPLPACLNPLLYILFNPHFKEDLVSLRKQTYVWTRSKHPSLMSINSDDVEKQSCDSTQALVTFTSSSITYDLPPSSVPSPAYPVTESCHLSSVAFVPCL

Chain of human ephrin type-A receptor 2 (EphA2), ectopically expressed on CHO cells (P29317 24-976): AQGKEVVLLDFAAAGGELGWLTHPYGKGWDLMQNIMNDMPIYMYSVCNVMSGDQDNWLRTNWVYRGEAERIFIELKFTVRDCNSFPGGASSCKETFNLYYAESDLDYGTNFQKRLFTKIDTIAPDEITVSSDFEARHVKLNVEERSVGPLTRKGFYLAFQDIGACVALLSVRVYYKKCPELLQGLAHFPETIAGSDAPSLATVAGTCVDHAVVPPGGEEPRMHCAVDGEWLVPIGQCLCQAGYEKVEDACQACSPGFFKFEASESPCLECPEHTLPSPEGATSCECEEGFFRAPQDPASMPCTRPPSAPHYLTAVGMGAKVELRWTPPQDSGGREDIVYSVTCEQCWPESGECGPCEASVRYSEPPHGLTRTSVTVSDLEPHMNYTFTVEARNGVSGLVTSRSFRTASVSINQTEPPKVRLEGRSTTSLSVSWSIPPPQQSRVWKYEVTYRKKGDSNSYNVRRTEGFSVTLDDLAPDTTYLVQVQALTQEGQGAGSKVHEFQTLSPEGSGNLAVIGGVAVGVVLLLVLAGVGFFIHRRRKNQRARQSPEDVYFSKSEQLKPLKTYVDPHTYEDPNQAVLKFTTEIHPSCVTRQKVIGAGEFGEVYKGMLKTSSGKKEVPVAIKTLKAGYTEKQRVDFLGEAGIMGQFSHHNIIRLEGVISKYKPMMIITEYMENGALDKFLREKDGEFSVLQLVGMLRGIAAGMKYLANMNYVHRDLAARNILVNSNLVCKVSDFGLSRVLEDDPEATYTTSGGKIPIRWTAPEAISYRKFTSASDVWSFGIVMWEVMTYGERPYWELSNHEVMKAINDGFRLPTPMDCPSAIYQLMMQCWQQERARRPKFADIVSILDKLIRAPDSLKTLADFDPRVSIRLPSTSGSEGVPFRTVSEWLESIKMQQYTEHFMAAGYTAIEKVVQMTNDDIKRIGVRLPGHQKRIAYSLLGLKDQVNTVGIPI

B1: IgG HCA-F1 (antibody, V domains shown)
VH: QVQLQESGGGLVQPGGSLRLSCAASGFTFSSYSMNWVRQAPGKGLEWVSYISSSSSTIYYADSVKGRFTISRDNAKNSLYLQMNSLRAEDTAVYYCARYRLPDFWSGYPNYGMDVWGQGTTVTVSS
VL: QSVLTQPPSVSGAPGQRVTISCTGSSSNIGAGYDVHWYQQLPGTAPKLLIYGNSNRPSGVPDRFSGSKSGTSASLAITGLQAEDEADYYCQSYDSSLSGHVVFGGGTKLTVL
Question: Does B1 bind [1]?
Answer: binds

Question: Does B1 bind [2]?
Answer: no binding
